The source of these data is paper PMC534114.

This experiment concerns the target Gab1^F627/659 (Y627F/Y659F) (mouse) (UniProt Q9QYY0).
Chain of UniProt Q9QYY0 (Q9QYY0 whole entry, stated change not applied): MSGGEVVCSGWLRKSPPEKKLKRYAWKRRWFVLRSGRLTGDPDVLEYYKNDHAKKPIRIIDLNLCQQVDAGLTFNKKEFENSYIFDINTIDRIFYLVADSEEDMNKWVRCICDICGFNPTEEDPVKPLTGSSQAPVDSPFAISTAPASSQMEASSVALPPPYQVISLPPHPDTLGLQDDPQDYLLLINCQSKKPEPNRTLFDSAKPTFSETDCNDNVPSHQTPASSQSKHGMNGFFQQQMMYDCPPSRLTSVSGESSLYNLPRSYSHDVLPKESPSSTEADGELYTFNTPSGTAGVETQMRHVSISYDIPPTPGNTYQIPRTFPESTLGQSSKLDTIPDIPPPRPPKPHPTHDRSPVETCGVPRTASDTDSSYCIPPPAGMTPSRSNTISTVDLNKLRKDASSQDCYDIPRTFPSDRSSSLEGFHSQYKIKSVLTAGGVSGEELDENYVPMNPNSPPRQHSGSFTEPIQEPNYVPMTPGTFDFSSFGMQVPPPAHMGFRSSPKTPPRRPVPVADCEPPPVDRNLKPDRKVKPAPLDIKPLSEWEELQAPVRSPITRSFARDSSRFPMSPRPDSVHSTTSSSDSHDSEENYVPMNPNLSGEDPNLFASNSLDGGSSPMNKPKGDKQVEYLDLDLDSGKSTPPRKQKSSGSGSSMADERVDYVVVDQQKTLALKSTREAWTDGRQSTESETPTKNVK

Turning to “p85, the regulatory subunit of PI-3 kinase (from UniProt P26450 1-724) (natural protein)”, the Gab1-associated PI-3 kinase activity in anti-Gab1 immunoprecipitates after EGF treatment (100 ng/ml, five minutes), relative to wild type Gab1 amounted to 2 fold and the basal PI-3 kinase activity in anti-Gab1 immunoprecipitates (PIP3 production), relative to wild type Gab1 came to 1.6 fold.
